The values that follow come from publication PMC9301641.

The target in assay [1] is Snof10, yeast surface-displayed. Kind of assay: flow cytometry on cells.
The target of assay [2] is Snof3, yeast surface-displayed. Nature of the assay: flow cytometry on cells. For orientation: A flow cytometer gives signals particle by particle.
The target in the next assay is SmBiT-Snof10. Nature of the assay: split reporter.
The target in another assay is Snof3-LgBiT. Kind of assay: split reporter.

B1: Sso6904 (natural protein)
chain: MMAMSILEDPEFVKLRQFKGKVNFNLVMQILDEIELDLRGSDNIKTSIIYVYSSHLDEIRKNKEFYDMIAEILQRYYKKIGIENVNQLILTTIK
As to B1, the Kd (commonly the concentration at which binding is half-saturated) in assay [1] is 28 nM; in assay [2], 11 nM; with SmBiT-Snof10, 20 nM; with Snof3-LgBiT, 20 nM.
